Results: the RNAGym collection of RNA variant scans (doi:10.1093/molbev/msab373)

B1: Azoarcus group I ribozyme (parent)
chain: GUGCCUUGCGCCGGGAAACCACGCAAGGGAUGGUGUCAAAUUCGGCGAAACCUAAGCGCCCGCCCGGGCGUAUGGCAACGCCGAGCCAAGCUUCGGCGCCUGCGCCGAUGAAGGUGUAGAGACUAGACGGCACCCACCUAAGGCAAACGCUAUGGUGAAGGCAUAGUCCAGGGAGUGGCGAAAGUCACACAAACCGG

Variants of: B1
Assay: reverse-splicing fitness (ratio to wild type); higher = more active; in vitro selection; Mg2+ level not given
In short: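 An in vitro group I ribozyme library with randomized positions was T7-transcribed and gel-purified. In triplicate, 10 pmol RNA in EPPS pH 7.5 was reacted with 50 pmoles of a 30-nt RNA substrate for 1 h at 37 °C across several added MgCl2 levels (1–48 mM), then stopped with EDTA. Products were reverse transcribed from a substrate-complementary primer, PCR-amplified and sequenced (HiSeq 4000). Fitness is a variant's read proportion after selection over that before, normalised to wild type.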
C82A A111U A120U A145G C169U U176G showed a reverse-splicing fitness of 0.00182.
C82A A111U A120U A145G C169U U176C showed a reverse-splicing fitness of 0.00428.
C82A A111U A120U A145G C169U U176A gave a reverse-splicing fitness of 0.00414.
C82A A111U A120U A145G C150G U176G showed a reverse-splicing fitness of 0.00434.
For C82A A111U A120U A145G C150G U176C, the reverse-splicing fitness was 0.00894.
C82A A111U A120U A145G C150G U176A showed a reverse-splicing fitness of 0.00697.
For C82A A111U A120U A145C C150A C169A U176A, the reverse-splicing fitness was 0.00272.
Work on C82A A111U A120U A145C C150A C169A U176G yielded a reverse-splicing fitness of 0.00263.
In the case of C82A A111U A120U A145C C150A C169A U176C, the reverse-splicing fitness is reported as 0.00299.
In the case of C82A A111U A120U, the reverse-splicing fitness is reported as 0.0228.
C82A A111U A120U A145U C150G U176A showed a reverse-splicing fitness of 0.00344.
For C82A A111U A120U A145U C150G U176G, the reverse-splicing fitness was 0.00272.
For C82A A111U A120U A145U C150G U176C, the reverse-splicing fitness was 0.00545.
C82A A111U A120U A145U C150U C169A U176A gave a reverse-splicing fitness of 0.00366.
Variant C82A A111U A120U A145U C150U C169A U176C has a reverse-splicing fitness of 0.00305.
For C82A A111U A120U A145U C150U C169A U176G, the reverse-splicing fitness was 0.00243.
C82A A111U A145G C150A showed a reverse-splicing fitness of 0.0371.
C82A A111U A120U A145U C150U C169A showed a reverse-splicing fitness of 0.00293.
Variant C82A A111U A120U A145U C150U C169G has a reverse-splicing fitness of 0.00407.
For C82A A111U A120U A145U C150U C169U, the reverse-splicing fitness was 0.00362.
In the case of C82A A111U A120U A145G C150U C169A U176A, the reverse-splicing fitness is reported as 0.00815.
Variant C82A A111U A120U A145G C150U C169A U176C has a reverse-splicing fitness of 0.00423.
Work on C82A A111U A120U A145G C150U C169A U176G yielded a reverse-splicing fitness of 0.00259.
In the case of C82A A111U A120U A145U C169U U176G, the reverse-splicing fitness is reported as 0.00208.
C82A A111U A120U A145U C169U U176A gave a reverse-splicing fitness of 0.00289.
For C82A A111U A120U A145U C169U U176C, the reverse-splicing fitness was 0.00325.
Work on C82A A111U A120U A145C C150G C169A U176A yielded a reverse-splicing fitness of 0.00316.
Work on C82A A111U A120U A145C C150G C169A U176G yielded a reverse-splicing fitness of 0.00234.
With C82A A111U A120U A145C C150G C169A U176C the reverse-splicing fitness was 0.00302.
Variant C82A A111U A120G C169U has a reverse-splicing fitness of 0.00987.
In the case of C82A A111U A120G C169G, the reverse-splicing fitness is reported as 0.0106.
With C82A A111U A120U A145G C150A C169A U176G the reverse-splicing fitness was 0.00392.
Variant C82A A111U A120U A145G C150A C169A U176A has a reverse-splicing fitness of 0.0108.
In the case of C82A A111U A120U A145G C150A C169A U176C, the reverse-splicing fitness is reported as 0.00627.
For C82A A111U A120U A145U C150A, the reverse-splicing fitness was 0.00619.
Work on C82A A111U A120U A145U C150U yielded a reverse-splicing fitness of 0.0173.
Variant C82A A111U A120U A145U C150G has a reverse-splicing fitness of 0.00631.
Variant C82A A111U A120U C150U C169U has a reverse-splicing fitness of 0.00507.
C82A A111U A120U C150U C169G gave a reverse-splicing fitness of 0.00623.
For C82A A111U A120U C150U C169A, the reverse-splicing fitness was 0.00594.
C82A A111U A120U C169A U176C gave a reverse-splicing fitness of 0.0039.
For C82A A111U A120U C169A U176G, the reverse-splicing fitness was 0.00243.
In the case of C82A A111U A120U C169A U176A, the reverse-splicing fitness is reported as 0.00348.
In the case of C82A A111U A145C C169G U176A, the reverse-splicing fitness is reported as 0.0281.
For C82A A111U A145C C169G U176G, the reverse-splicing fitness was 0.00654.
For C82A A111U A145C C169G U176C, the reverse-splicing fitness was 0.0185.
For C82A A111U A145C C150U C169A, the reverse-splicing fitness was 0.0081.
For C82A A111U A145C C150U C169U, the reverse-splicing fitness was 0.0112.
Work on C82A A111U A145C C150U C169G yielded a reverse-splicing fitness of 0.00788.
In the case of C82A A111U A120U A145U C150U C169G U176A, the reverse-splicing fitness is reported as 0.00409.
In the case of C82A A111U A120U A145U C150U C169G U176C, the reverse-splicing fitness is reported as 0.00351.
Variant C82A A111U A120U A145U C150U C169G U176G has a reverse-splicing fitness of 0.00224.
Work on C82A A111U A120U C150A C169A yielded a reverse-splicing fitness of 0.00615.
With C82A A111U A120U C150A C169G the reverse-splicing fitness was 0.00511.
Variant C82A A111U A120U C150A C169U has a reverse-splicing fitness of 0.00495.
Variant C82A A111U A120U A145C C150A C169U U176C has a reverse-splicing fitness of 0.00287.
In the case of C82A A111U A120U A145C C150A C169U U176G, the reverse-splicing fitness is reported as 0.00186.
For C82A A111U A120U A145C C150A C169U U176A, the reverse-splicing fitness was 0.00277.
C82A A111U A120U A145U C150A U176C gave a reverse-splicing fitness of 0.00625.
Work on C82A A111U A120U A145U C150A U176A yielded a reverse-splicing fitness of 0.00486.
C82A A111U A120U A145U C150A U176G showed a reverse-splicing fitness of 0.00236.
Variant C82A A111U A120U A145U C150G C169U U176C has a reverse-splicing fitness of 0.00313.
For C82A A111U A120U A145U C150G C169U U176G, the reverse-splicing fitness was 0.0027.
Work on C82A A111U A120U A145U C150G C169U U176A yielded a reverse-splicing fitness of 0.00308.
Work on C82A A111U A120U A145C C150U yielded a reverse-splicing fitness of 0.00779.
For C82A A111U A120U A145C C150A, the reverse-splicing fitness was 0.00524.
In the case of C82A A111U A120U A145C C150G, the reverse-splicing fitness is reported as 0.0059.
Work on C82A A111U A120G C169G U176A yielded a reverse-splicing fitness of 0.0219.
C82A A111U A120G C169G U176G showed a reverse-splicing fitness of 0.00439.
With C82A A111U A120G C169G U176C the reverse-splicing fitness was 0.0234.
In the case of C82A A111U A120U A145G C150U C169U U176A, the reverse-splicing fitness is reported as 0.00537.
With C82A A111U A120U A145G C150U C169U U176C the reverse-splicing fitness was 0.00506.
Work on C82A A111U A120U A145G C150U C169U U176G yielded a reverse-splicing fitness of 0.00286.
Work on C82A A111U A120U A145C C169G U176G yielded a reverse-splicing fitness of 0.00198.
With C82A A111U A120U A145C C169G U176A the reverse-splicing fitness was 0.00281.
For C82A A111U A120U A145C C169G U176C, the reverse-splicing fitness was 0.00232.
In the case of C82A A111U A120U A145U C150A C169G, the reverse-splicing fitness is reported as 0.00274.
Variant C82A A111U A120U A145U C150A C169A has a reverse-splicing fitness of 0.00286.
Work on C82A A111U A120U A145U C150A C169U yielded a reverse-splicing fitness of 0.00298.
In the case of C82A A111U A120U C150G C169G U176G, the reverse-splicing fitness is reported as 0.00289.
For C82A A111U A120U C150G C169G U176C, the reverse-splicing fitness was 0.00289.
In the case of C82A A111U A120U C150G C169G U176A, the reverse-splicing fitness is reported as 0.00475.
Work on C82A A111U A145C C150G C169G U176G yielded a reverse-splicing fitness of 0.00637.
